{"source": "patent US20260258121A1", "about": "“USES OF POMC-SPECIFIC ANTIBODY AND MARCHF6” (KOREA UNIVERSITY RESEARCH AND BUSINESS FOUNDATION, priority 2023, published 2026)", "molecules": {"B1": {"name": "Marchf63f^P460A: POMC-inaccessible Marchf6 mutant with Pro460-to-Ala mutation in the POMC-interacting region (pCH4170) (protein, UniProt Q6ZQ89 1-909, looked up, variant P460A)", "E3 ubiquitin-protein ligase …": "MDTAEEDICRVCRSEGTPEKPLYHPCVCTGSIKFIHQECLVQWLKHSRKEYCELCKHRFAFTPIYSPDMPSRLPIQDIFAGLVTSIGTAIRYWFHYTLVAFAWLGVVPLTACRIYKCLFTGSVSSLLTLPLDMLSTENLLADCLQGCFVVTCTLCAFISLVWLREQIVHGGAPIWLEHAAPPFNAAGHHQNEAPVGGNGAENPAADQPANPAGENAVLGENPDAQDGQAEEEEEDNEEEDDAGVEDAADANNGAQDDMNWNALEWDRAAEELTWERMLGLDGSLVFLEHVFWVVSLNTLFILVFAFCPYHIGHFSLVGLGFEEHVQASHFEGLITTIVGYILLAITLIICHALATLVKFHRSRRLLGVCYIVVKVSLLVVVEIGVFPLICGWWLDICSLEMFDATLKDRELSFQSAPGTTMFLHWLVGMVYVFYFASFILLLREVLRPGVLWFLRNLNDADFNPVQEMIHLPIYRHLRRFILSVIVFGSIVLLMLWLPIRIIKSLLPNFLPYNVMLYSDAPVSELSLELLLLQVVLPALLEQGHTRQWLKGLVRAWTVTAGYLLDLHSYLLGDQEENENSANQQVNNNQPARNNNAVPAGEGLHAAHQAILQQGGPVGFQPYRRPLNFPLRIFLLIVFMCITLLIASLICLTLPVFAGRWLMSFWTGTAKIHELYTAACGLYVCWLTIRAVTVLVAWMPQGRRVIFQKVKEWSLMIMKTLIVAVLLAGVVPLLLGLLFELVIVAPLRVPLDQTPLFYPWQDWALGVLHAKIIAAITLMGPQWWLKTVIEQVYANGIRNIDLHYIIRKLAAPVISVLLLSLCVPYVIASGAVPLLGVTAEMQNLVHRRIYPFLLMVVVLMGILSFQVRQFKRLYEHIKNDKYLVGQRLVNYERKSGKQGPSTPPPVSSQE", "modifications": "C-terminal triple FLAG tag"}, "B2": {"name": "Marchf63f^C9A: catalytically inactive Marchf6 mutant (pCH880) (protein, UniProt Q6ZQ89 1-909, looked up, variant C9A)", "E3 ubiquitin-protein ligase …": "B1 E3 ubiquitin-protein ligase … with C9A, A460P", "modifications": "C-terminal triple FLAG tag"}}, "key": {"Gpx4": {"tested_on": "Gpx4", "test": "Immunoblotting of Gpx4 in POMCha^Δ1-26-expressing N43/5 cells treated with degradation inhibitors", "format": "cell-based, mouse", "conditions": "8 hours", "method": "To determine whether full-length POMCha or cytosolic POMCha^[…] regulated the expression of Gpx4 protein, which was known to be degraded by ferroptosis induction, the mRNA level of Gpx4 was analyzed by qRT-PCR in […]/5 cells overexpressing full-length POMCha or cytosolic POMCha^[…], and subjected to CHX-chase assay. In addition, since Gpx4 degradation occurred through chaperone-mediated autophagy (CMA), macroautophagy, or the Ub-proteasome system, […]/5 cells overexpressing POMCha^[…] were treated with a lysosomal inhibitor such as chloroquine (CQ) or BafA1 (bafilomycin A1), a proteasome inhibitor MG132, or a macroautophagy inhibitor 3-MA (3-methyladenine), and the expression of Gpx4 protein was analyzed by immunoblotting. In addition, the expression of lysosome-associated protein 2A (Lamp2a), heat shock chaperones Hsc70 and Hsp90 was confirmed by immunoblotting in […]/5 cells overexpressing POMCha^[…], and changes in Gpx4 were analyzed by treatment with Lamp2a-specific siRNA (SCBT, sc-35791)."}, "[1]": {"tested_on": "POMCha-overexpressing Marchf6-KO N43/5 cells", "test": "Cell viability (CellTiter-Glo) of POMCha-overexpressing Marchf6-KO N43/5 cells", "format": "cell-based, mouse", "conditions": "for reduced viability of POMCha-overexpressing Marchf6-deficient N43/5 cells, effect of ectopic expression: ectopic expression by transfection", "method": "To understand the functional or mechanistic association between Marchf6-mediated POMC degradation and ferroptosis, lipid ROS levels were compared in N43/5 cells overexpressing POMCha using a lipid peroxidation sensor C11-BODIPY^581/591. Specifically, WT or Marchf6-KO N43/5 cells were transfected with pCH4129 (POMCha) for 48 hours, and the medium was replaced with a culture medium containing 2 μM C11-BODIPY^581/591 (Thermo Fisher Scientific, D3861). The cells were incubated at 37° C. for 30 minutes, and the fluorescent probe-treated cells were trypsinized, transferred to a 15 ml Falcon tube, washed three times with 1 ml of ice-cold PBS, and then transferred to an ice-cold round-bottom polystyrene tube (Corning, 352235). The amount of intracellular lipid ROS in […] was measured using CytoFLEX LX (Beckman Coulter) using fluorescein isothiocyanate (FITC) and analyzed using FlowJo v10.8.1 (BD Bioscience). In addition, cell viability was analyzed using a CellTiter-Glo luminescent 3D cell viability assay kit (Promega, G9241) and a multimode plate reader (TECAN, Spark 10 M). At this time, when the inhibition of cell death was evaluated, WT or Marchf6-KO N43/5 cells expressing pCH60 (empty vector) or pCH4129 (POMCha) (final concentration of […] each) were treated with 5 μM Fer-1, 20 μM Z-VAD-FMK or 40 μM Nec-1, and incubated for 24 hours, and cell viability was analyzed. In addition, the intracellular NADP(H) level was measured using a NADP/NADPH-Glo assay kit (Promega, G9081) and a multimode plate reader (TECAN, Spark 10 M). Further, LDH activity was measured using the Cytotoxicity Detection Kit Plus (LDH) (Sigma, 4744926001).\nThrough Examples, since Marchf6 mediated the degradation of POMC, it was expected that loss of Marchf6 would make POMC neurons hypersensitive to POMC-induced ferroptosis. Therefore, pCH60 (empty vector), pCH879 (Marchf63f), pCH880 (Marchf6flag^C9A), or pCH4170 (Marchf6flag^P460A) was transfected into WT or Marchf6-KO N43/5 cells, and the degree of ferroptosis induction in POMC neurons was analyzed as in Example 6-1."}, "POMC": {"molecular_target": "T1, POMC (Homo sapiens, UniProt P01189)", "T1 construct": "expressed in transfected cells; host or cells: HEK293T", "T1 sequence (P01189 1-267)": "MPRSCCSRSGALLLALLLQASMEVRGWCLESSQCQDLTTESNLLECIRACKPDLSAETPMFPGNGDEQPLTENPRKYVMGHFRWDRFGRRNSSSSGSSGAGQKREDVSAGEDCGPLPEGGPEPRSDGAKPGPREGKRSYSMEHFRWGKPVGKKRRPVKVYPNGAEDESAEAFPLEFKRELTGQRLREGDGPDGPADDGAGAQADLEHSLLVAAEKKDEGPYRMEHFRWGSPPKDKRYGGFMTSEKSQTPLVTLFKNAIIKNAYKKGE", "test": "Chemical crosslinking-based reciprocal co-immunoprecipitation assay in HEK293T cells", "format": "binding", "conditions": "DSP crosslinking", "method": "For the chemical crosslinking-based reciprocal co-immunoprecipitation assay, HEK293T cells were incubated at […] in a 10-cm dish plate and co-transfected with […] of pCH60 (empty vector) or pCH4129 (exogenous C-terminally hemagglutinin (ha)-tagged POMC: POMCha) and pCH879 (wild-type C-terminal triple flag-tagged Marchf6: Marchf63f) or pCH4170 (Marchf6^P460A) and incubated for 48 hours. The cells were washed with PBS, treated with 1 mM DSP [dithiobis(succinimidyl propionate)] (Thermo Fisher, 22585), and then the crosslinked cells were lysed and immunoprecipitated. The beads were washed three times with an IP-wash buffer (20 mM Tris-HCl, 137 mM NaCl, 0.1% NP-40, 2 mM EDTA, 10% glycerol) and bound proteins were eluted with a 2× SDS sample buffer. For immunoprecipitation with FLAG-agarose (Sigma-Aldrich, A2220), a 3× FLAG peptide (Protein Ark, GEN-3XFLAG-5) was used. Thereafter, the eluate was denatured and heated at 37° C. for 20 minutes, and SDS-PAGE and immunoblotting were performed using the corresponding antibody."}, "[2]": {"tested_on": "Gpx4, CHOP, Nox2, and Nox4", "test": "Immunoblotting of Gpx4, CHOP, Nox2 and Nox4 in POMCha-overexpressing Marchf6-KO N43/5 cells", "format": "cell-based, mouse"}}, "note": "Changes are numbered by the printed parent chain. Names may count otherwise. Where a SMILES comes first, the peptide text is derived from it. The star is where a group is joined. Cbz = O=C(OCc1ccccc1)*; CH2F = FC*"}
{"molecule": "CCN(CC)CCCC(C)Nc1ccnc2cc(Cl)ccc12", "note": "(stereo not drawn) [CQ, chloroquine]", "values": [{"measurement": "Gpx4 downregulation in POMCha^Δ1-26-expressing N43/5 cells, effect of treatment", "setting": "Gpx4; CQ 50 μM", "result": "restored"}]}
{"molecule": "CN1C(=O)C(Cc2c[nH]c3ccccc23)NC1=S", "note": "(stereo not drawn) [Nec-1, necrostatin-1, reference compound]", "values": [{"measurement": "decreased viability of POMCha-overexpressing Marchf6-KO N43/5 cells, effect of treatment", "setting": "[1]; 40 μM Nec-1, 24 hours", "result": "not restored"}]}
{"molecule": "COC(=O)C[C@H](NC(=O)[C@H](C)NC(=O)[C@@H](NC(=O)OCc1ccccc1)C(C)C)C(=O)CF", "note": "[Z-VAD, Z-VAD-FMK, reference compound] (Cbz-Val-Ala-Asp(OMe)-CH2F)", "values": [{"measurement": "decreased viability of POMCha-overexpressing Marchf6-KO N43/5 cells, effect of treatment", "setting": "[1]; 20 μM Z-VAD-FMK, 24 hours", "result": "not restored"}]}
{"molecule": "CO/C1=C\\C(C)=C\\[C@@H](C)[C@@H](O)[C@@H](C)C/C(C)=C/C=C/[C@H](OC)[C@@H]([C@@H](C)[C@@H](O)[C@H](C)[C@@]2(O)C[C@@H](O)[C@H](C)[C@@H](C(C)C)O2)OC1=O", "note": "[BafA1, bafilomycin A1]", "values": [{"measurement": "Gpx4 downregulation in POMCha^Δ1-26-expressing N43/5 cells, effect of treatment", "setting": "Gpx4; BafA1 100 nM", "result": "restored"}]}
{"molecule": "B1", "values": [{"measurement": "binding of full-length POMC (co-immunoprecipitation)", "setting": "POMC", "result": "did not bind"}, {"measurement": "expression levels of Gpx4, CHOP, Nox2, and Nox4 proteins, effect of expression of construct", "setting": "[2]", "result": "not restored"}, {"measurement": "reduced viability of POMCha-overexpressing Marchf6-deficient N43/5 cells, effect of ectopic expression", "setting": "[1]", "result": "not restored"}]}
{"molecule": "B2", "values": [{"measurement": "expression levels of Gpx4, CHOP, Nox2, and Nox4 proteins, effect of expression of construct", "setting": "[2]", "result": "not restored"}, {"measurement": "reduced viability of POMCha-overexpressing Marchf6-deficient N43/5 cells, effect of ectopic expression", "setting": "[1]", "result": "not restored"}]}
